Data taken from publication PMC12681905.
pKd: −log10 of the molar value.

How the values were obtained:
[1] = target: recombinant human LONP1 protein (human) (UniProt P36776); assay: SPR; Biacore T200, LONP1 covalently coupled to a CM5 chip; SOD2 from 10 to 0.3125 uM in PBS/0.01 % Tween 20, 20 ul/min; association 240 s, dissociation 420 s
[2] = target: recombinant human LONP1 protein (human) (UniProt P36776); assay: MST; Monolith NT.115; 86 nM NHS-labelled LONP1, SOD2 from 2.85 to 22.8 uM, incubated 10 min; 80 % LED power, 80 % MST
[3] = target: recombinant human LONP1 protein (human) (UniProt P36776); assay: BLI; Octet R8, biotinylated LONP1 on streptavidin 2.0 biosensor; SOD2 at 0, 2.5, 5 and 10 uM for 90 s; steady-state fit

pKd [1]: 6.66 | pKd [2]: 5.81 | pKd [3]: 4.87
Substance: recombinant human SOD2 protein (from UniProt P04179 25-222) (enzyme)
